Assay results from US6881575.

How the values were obtained:
[1] = target: T1, Cdc25C peptide (amino acid 211 to 221 of Cdc25C; LYRSPSMPENL)
T1 chain: LYRSPSMPENL

[2] = target: T2, GST-Cdc25C (amino acid 200-256)
T2 sequence (P30307 whole entry, looked up): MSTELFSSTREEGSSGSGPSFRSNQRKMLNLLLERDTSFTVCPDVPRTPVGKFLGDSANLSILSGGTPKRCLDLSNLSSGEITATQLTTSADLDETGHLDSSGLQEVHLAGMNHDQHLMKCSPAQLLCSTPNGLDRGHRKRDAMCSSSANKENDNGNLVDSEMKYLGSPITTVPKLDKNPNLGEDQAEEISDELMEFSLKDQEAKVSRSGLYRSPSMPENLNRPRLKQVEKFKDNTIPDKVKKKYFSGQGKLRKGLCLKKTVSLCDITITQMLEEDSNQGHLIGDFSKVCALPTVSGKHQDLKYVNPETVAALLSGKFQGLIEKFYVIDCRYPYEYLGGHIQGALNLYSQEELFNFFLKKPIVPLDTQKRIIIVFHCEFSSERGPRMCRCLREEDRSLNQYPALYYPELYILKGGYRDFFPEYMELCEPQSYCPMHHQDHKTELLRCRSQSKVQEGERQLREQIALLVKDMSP

[3] = target: TAT-S216 peptide
[4] = target: T3, TAT-S216A peptide
T3 chain: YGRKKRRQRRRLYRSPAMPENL

B1: c-myc-tagged Chk2/HuCds1 (peptide)
chain: LYRSPSMYENL
[1]
  in vitro phosphorylation of the Cdc25C peptide by Chk2/HuCds1: phosphorylation of Cdc25C peptide (residues 200-256) (SEQ ID NO:1) mediated by hChk1 (SEQ ID NO:3) and Chk2/HuCds1 (SEQ ID NO:4)

B2: HA-tagged hChk1 (peptide)
chain: LYRSPSMFENL
[1]
  in vitro phosphorylation of the Cdc25C peptide by hChk1: phosphorylation of Cdc25C peptide (residues 200-256) (SEQ ID NO:1) mediated by hChk1 (SEQ ID NO:3) and Chk2/HuCds1 (SEQ ID NO:4)
[2]
  in vitro phosphorylation of GST-Cdc25C by immunoprecipitated hChk1 (32P-ATP, SDS-PAGE autoradiogram): hChk1 (SEQ ID NO:3) was capable of phosphorylating a Cdc25C protein (residues 20-256) (SEQ ID NO:1) fused to GST
[3]
  phosphorylation of the peptide by hChk1: TAT-S216 but not TAT-S216A was efficiently phosphorylated by hChk1
[4]
  phosphorylation of the peptide by hChk1: TAT-S216 but not TAT-S216A was efficiently phosphorylated by hChk1
